Earlier results as cited in publication PMC3061256.

Target: HPr (Escherichia coli) (UniProt P0AA04)

With “EIN (enzyme I N-terminal domain) N-terminal domain (from UniProt P08839)” as the substance, how does the Kd read?
The Kd was 10 µM.
